The values below come from patent US20220273789A1.

One may read the Kd as the equilibrium constant for the complex coming apart. The low end stands for higher affinity, the high end for lower affinity. In general, koff refers to the rate constant with which the complex falls apart. The term kon denotes the rate constant with which the complex forms. Low values mean slow association, high ones fast association.

This test has as its target human IgG (human). In words: BLI Octet, construct on Ni-NTA sensor, hIgG in solution. On the technique in general: BLI is a label-free optical method that tracks binding on a fibre tip over time.
The substance “HSV2-gE_R320P_gI (from UniProt P89475 21-416; P06764 21-256) (receptor)” returned a Kd of 1650 nM, a Response (nm) of 0.267 nm, a koff of 0.00235 s⁻¹ and a kon of 1420 M⁻¹ s⁻¹.
The corresponding values for “HSV2-gE_P318Q_gI (from UniProt P89475 21-416; P06764 21-256) (receptor)” are 443 nM, 0.152 nm, 0.00139 s⁻¹ and 3150 M⁻¹ s⁻¹.
In turn, “HSV2-gE_R314I_gI (from UniProt P89475 21-416; P06764 21-256) (receptor)” came in with a Kd of 658 nM, a Response (nm) of 0.446 nm, an off-rate constant (koff) of 0.00556 s⁻¹ and a kon of 8450 M⁻¹ s⁻¹.
In turn, “HSV2-gE_R320Q_gI (from UniProt P89475 21-416; P06764 21-256) (receptor)” came in with a Kd of 902 nM, a Response (nm) of 0.351 nm, a koff of 0.00539 s⁻¹ and a kon of 5980 M⁻¹ s⁻¹.
The substance “HSV2-gE_H245A P319L_gI (from UniProt P89475 21-416; P06764 21-256) (receptor)” registered a Kd of 449 nM, a Response (nm) of 0.265 nm, an off-rate (koff) of 0.00273 s⁻¹ and an on-rate (kon) of 6080 M⁻¹ s⁻¹.
The matching figures for “HSV2-gE_H245Q_gI (from UniProt P89475 21-416; P06764 21-256) (receptor)”: 320 nM, 0.896 nm, 0.0048 s⁻¹ and 15000 M⁻¹ s⁻¹.
The matching figures for “HSV2-gE_S338L_gI (from UniProt P89475 21-416; P06764 21-256) (receptor)”: 439 nM, 0.467 nm, 0.00223 s⁻¹ and 5080 M⁻¹ s⁻¹.
Turning to “HSV2-gE_R314M_gI (from UniProt P89475 21-416; P06764 21-256) (receptor)”, the Kd is 608 nM, the Response (nm) turned out to be 0.519 nm, the koff worked out at 0.00592 s⁻¹ and the kon was determined as 9730 M⁻¹ s⁻¹.
The matching figures for “HSV2-gE_S338E_gI (from UniProt P89475 21-416; P06764 21-256) (receptor)”: 348 nM, 0.616 nm, 0.0043 s⁻¹ and 12300 M⁻¹ s⁻¹.
Turning to “HSV2-gE_A248G V340M_gI (from UniProt P89475 21-416; P06764 21-256) (receptor)”, the Kd is 571 nM, the Response (nm) was 0.452 nm, the koff was found to be 0.0052 s⁻¹ and the kon came to 9110 M⁻¹ s⁻¹.
The matching figures for “HSV2-gE_R314P_gI (from UniProt P89475 21-416; P06764 21-256) (receptor)”: 443 nM, 0.557 nm, 0.00474 s⁻¹ and 10700 M⁻¹ s⁻¹.
The corresponding values for “HSV2-gE_R320I_gI (from UniProt P89475 21-416; P06764 21-256) (receptor)” are 406 nM, 0.622 nm, 0.00438 s⁻¹ and 10800 M⁻¹ s⁻¹.
“HSV2-gE_V340A_gI (from UniProt P89475 21-416; P06764 21-256) (receptor)” came in with a Kd of 474 nM, a Response (nm) of 0.356 nm, a koff of 0.00422 s⁻¹ and a kon of 8910 M⁻¹ s⁻¹.
Regarding “HSV2-gE_R314Q_gI (from UniProt P89475 21-416; P06764 21-256) (receptor)”, the Kd worked out at 498 nM, the Response (nm) came to 0.568 nm, the koff was determined as 0.00535 s⁻¹ and the kon worked out at 10800 M⁻¹ s⁻¹.
On to “HSV2-gE_A246W R320D_gI (from UniProt P89475 21-416; P06764 21-256) (receptor)”, for which the Kd was < 0.001 nM, the Response (nm) came to 0.0712 nm, the koff is < 1e-07 s⁻¹ and the kon was 2260 M⁻¹ s⁻¹.
The substance “HSV2-gE_R314F_gI (from UniProt P89475 21-416; P06764 21-256) (receptor)” came in with a Kd of 884 nM, a Response (nm) of 0.325 nm, a dissociation rate constant (koff) of 0.0048 s⁻¹ and an on-rate constant (kon) of 5430 M⁻¹ s⁻¹.
For the substance “HSV2-gE_A248G F322P_gI (from UniProt P89475 21-416; P06764 21-256) (receptor)”, the Kd was found to be 320 nM, the Response (nm) was 0.497 nm, the koff is 0.00367 s⁻¹ and the on-rate (kon) was 11500 M⁻¹ s⁻¹.
As for “HSV2-gE_F322P_gI (from UniProt P89475 21-416; P06764 21-256) (receptor)”, the Kd came out at 160 nM, the Response (nm) came out at 0.807 nm, the koff is 0.00223 s⁻¹ and the association rate constant (kon) is 13900 M⁻¹ s⁻¹.
The matching figures for “HSV2-gE_P318D_gI (from UniProt P89475 21-416; P06764 21-256) (receptor)”: < 0.001 nM, 0.0995 nm, < 1e-07 s⁻¹ and 5180 M⁻¹ s⁻¹.
“HSV2-gE_F322K_gI (from UniProt P89475 21-416; P06764 21-256) (receptor)” registered a Kd of 278 nM, a Response (nm) of 0.599 nm, a koff of 0.00301 s⁻¹ and a kon of 10800 M⁻¹ s⁻¹.
In turn, “HSV2-gE_P317N_gI (from UniProt P89475 21-416; P06764 21-256) (receptor)” displayed a Kd of 500 nM, a Response (nm) of 0.381 nm, a koff of 0.00459 s⁻¹ and a kon of 9180 M⁻¹ s⁻¹.
“HSV2-gE_P317L_gI (from UniProt P89475 21-416; P06764 21-256) (receptor)” showed a dissociation constant Kd of 5110 nM, a Response (nm) of 0.161 nm, a koff of 0.00181 s⁻¹ and a kon of 354 M⁻¹ s⁻¹.
“HSV2-gE_F322I_gI (from UniProt P89475 21-416; P06764 21-256) (receptor)”: the Kd is 302 nM, the Response (nm) stood at 0.639 nm, the koff came to 0.00363 s⁻¹ and the kon is 12000 M⁻¹ s⁻¹.
For “HSV2-gE_R320G_gI (from UniProt P89475 21-416; P06764 21-256) (receptor)”, the Kd came to 1180 nM, the Response (nm) amounted to 0.322 nm, the koff is 0.00462 s⁻¹ and the kon came out at 3920 M⁻¹ s⁻¹.
“HSV2-gE_R314G_gI (from UniProt P89475 21-416; P06764 21-256) (receptor)” came in with a dissociation constant (Kd) of 572 nM, a Response (nm) of 0.478 nm, a koff of 0.0052 s⁻¹ and a kon of 9080 M⁻¹ s⁻¹.
The matching figures for “HSV2-gE_H245G_gI (from UniProt P89475 21-416; P06764 21-256) (receptor)”: 1630 nM, 0.424 nm, 0.00669 s⁻¹ and 4110 M⁻¹ s⁻¹.
With “HSV2-gE_A248T V340R_gI (from UniProt P89475 21-416; P06764 21-256) (receptor)”, the Kd was < 0.001 nM, the Response (nm) came to 0.183 nm, the koff is < 1e-07 s⁻¹ and the kon was determined as 5000 M⁻¹ s⁻¹.
The matching figures for “HSV2-gE_R314L_gI (from UniProt P89475 21-416; P06764 21-256) (receptor)”: 702 nM, 0.442 nm, 0.00521 s⁻¹ and 7430 M⁻¹ s⁻¹.
